Measured values taken from a protein production outcome set (Wang et al. 2014).

Assay: label from the status in PepcDB records
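Also: failed if final PepcDB status was selected cloned or expressed and not failed if soluble or beyond.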

Sequence	protein production
MTLKLIGAGFGRTGTWSTFAALNRLGLPCYHMQEVIMNKANKGHLDFWRKVANSPPGSQHDWNRVFANYTATVDNPGCCVWKELLAAYPDAKVLLTLHPRGAEAWYESTIDTIYFTENVWQFKILEWLTPFGWKFGDMSRKLIWGRTLDGVMNDRAKAVARYNTYVEQVKAAVPPHKLLVYKVTEGWAPLCDFLGVALPNEPFPNLNDRETIKKIIRDIIKGSYIMLGLAIAAIVAVVAALWWWLG	failed
MTLLRDHDLARAFDHASHTYDGLTALNPGYRTGLLRSARRLALPADGAGLHLLDLGCGTGASTRALLRAAPRARITAVDASAGMLRRALVKPWPARVRFLHLTAEEFATTREDEGPFDAVFAAYLFRNVTDPDAVLRAVRQLLRPGGRFAAHEYSLSGSPGHRALWSAVCRGVVIPAGTLTGDRTLYRHLRRSVVAFDTAPEFAARLTRAGLTSVRVAPVAGWQTGIVHTFLARNGGPTTTEERVL	failed
MTLSFFRPRARKVTAAVLLMTWLAPVSPLALAQPASVPAAPAGAAAAEQVQSNLNRSVQIGRQSPYLQKDATIIDAPTYELPDMGDPSTAALSPEMERRLGDRVMRQIRRDPDYVPDPLLSDYLNDIGYRLIEAARRQHVAGSTSASSFELFAVRDPGINAFALPGGYIGVNTGTLVATESESELASVLGHEIGHVLQRHIARGIDKSGESMWIALASILLAGLAATKSGDAAQALAVGGQAAAVSNQLAFSRGAEREADRVGFTLLTGAGYNPDGMPDFFRRLQRVSSIADTGAVPGYARTHPLTGERIADMEDRARGLPHPRQPQRPAFGFAKARARVLQETSTSAYLDVRNAMRSQLASAPDAPAEKRAALWYGIAVAEQLAGQLDPAEQALLEARRLYGNIPGLTSGSPSLDVTAIELARARNRVPEALTMARAALAAYPLSRAVGITYAQTLLAAGRAGDAIPYLQDKAREDTAQPIWWDMLARAYADQGKRVEQHRALAEKYARDGAWGAAVEQLKLARDAGDADFYTLSEVDARLHQMERQYREEKQEEKALPK	failed
MTLSKQLKTYITERFKLNYQDTWSCETVDAVAEDVLPEKYIKNSPLEHKILNTFTYYNDELHEISIYPFLCYLDKELIAIGYLDNFDLDFIFLNDTHQIIIDERYLLQKGGELEHHHHHH	failed
MTLTMGFIGFGKSANRYHLPYVNTRKNIKVKTIFARQINEELAAPYEEKGVSFTTNLDELLNDKEIQVVTVCTPAHTHYELAKKVILAGKSVIVEKPFCDTVEHAKELLALGREKGVVVMPYQNRRFDGDFLAVKQVVEQGFLGDIVEVESHIDYFRPGSINHEGPKEEGSFYSLGIHTMDRMISLFGRPDTVTYDIRNNEVDGAVDNYFDVGLHYGNQLKIKLKTNHVVAKDYPRFIVHGTNGSFIKYGEDQQENDLKAGIMPESAGFGEDSPMYYGIAKYRNANGDWIEKQIKTPLGDYGRFYDAAYETIVNGAPKLVKDEEAVTNIEILENGFAAPSPSVYKLEALNLNE	failed
MTLTPEAEIALFLRRLKWAAVIVGVLWVVSLLAPILTPFVLALLLAWLGDPLVDRIERAGRSRNVAVVLVFVLATLLFVLALMILVPMIERQIMTLIDALPQMRNWAIGTAIPWLEAKTGMQLMAWLDPERLIDWIRSHWEQAGGAAKTLFGYVSRSGFAMVTWVINLALLPILAFYFLRDWDRLVERVAAVIPRAYIGTASRLAQESNDVLGGFIRGQFLVMLALGAIYATGMSIIGLNLGLLIGIIAGLISFIPYLGATTGIVLALLAAIVQAQGLDLKLLIGVGVVFTVGQLLESYVLTPRIVGDKIGLHPVAVIFAVMAGGQLFGFLGMLLALPVAAVANVLLRYAHEQYTRSDLYAGERAGIVLRSTPERSVIIDPSKDADRL	failed
MTLVEFPAITFAAVVCWAVGSLLQIPAKNSKVSGPLSWLFLFSGTLVLVWFLASYWIALDRPPLRTLGETRLWYATLIPVVGFLVEYRYKIGWLKYYCMGLATVFLGINYMHPDVFEKALMPALQSPWFVPHVVVYLVGYVLLAASAVSGWHNVFLNFRGKRSAKGESMAHYLALLGFVLLTFGLIFGALWAKEAWGHYWTWDPKETWAFISWLAYLGYLHLVACKTDPRKLQWYLGLAFFVLLVCWFGVNYLPSAQNSVHTYSGAS	failed
MTMAVGTFKQSRFQLPLPRLSVMDRYLFVELFLPFIFGMGMFTSLALSIGTLFDLVRRVTESGLPMDIAVKILFLKMPEFVVLAFPMSMLLASLMAYSRLSSDSELIALRSIGVSIYRLVVPALLFGIVVTGIAFVFNDRITPAASYEALATLDRAIHQDRPPRQEQNIIYPEYGMVRQPDGNEKNILKRLFYAEEFNGSEMKGLTILDRTQSGVNQVLTAERASWNISENTWDFYDGTVYLIAPDGSYRNIVRFRHQQLALPRAPLDLASQERKDGEMTIAQSRRYLEVLRLSGDDKKVRKLEVRIQKKYALPFVCFVFGLIGAAIGVRPQNTNKATSFGICVGLIFFYYLLSFLSESMGIWGALDPFTAAWLPNFLGLIAGTILLVQSSRLR	failed
MTMDNFSIRPMKRSELDVVIDWAAIEGWNPGIYDAECFYQADQCGFFVGELNNELVASISAVAYSQHFAVIGFYIVKEQFRGRGFGMKMWRTAMAYLGSERNISLDGVIAQQENYKKSGFQIAYRHIRYQV	failed
MTMEALQFLLAAPPGAYDPVARTIEDEPRPSQPPTSALALDIRGLRKSFGDNDVLRGIDLHIPAGQFVTIVGRSGCGKSTLLRLIAGLETPTAGHIVFGEDKLPGDVRVMFQEPRLLPWARVLANVEVGLGTERNSPDARARADAALIEVGLDDKRGEWPAVLSGGQKQRVALARALVSRPRVLAFDEPLGALDALTRIAMQRLLEQVWQAQGFTAILVTHDVAEAVALADRVLVIEDGRIAKDLPIDLPRPRQRGSAELAALEGEILRDLLKGAEDTFEL	failed
MTMIEPDPADFEPIHPYSLARISHVALQAGAVLAQSGASVRVVHEGARMVAEGLGVEVLGMRSGYASFEITLARGHHSFTRMTQIGPHGVNHRLDFAVRDLLKRAARGDMTPDAIEAELKRLQSETPRHPPWLVAIATGAACAAFGRLLGSDWLSFGPVLAAASIGQGVRHLLLGRRFNVFVVAAIVGCISAALGGLGARLIGSSTTELAMMASILLLVPGVPSTNAQTDVMDGYPTMGSARAVTVIMIMVFAVTGLWLAEFVLRIHT	failed
MTMITFSARLAPFQPETVWTLEAGTLIETRGRIERRFPLSSLTRYSLSLAPDGRRRVLLVVFGRRRLLIPSQSYVGPGRFEDRLAAFSVLARALAAVGADLSPRARFGLARLEARTALTFVMGLLAFGAASTLLFSLTAGMVAVGVDLAARMAFVLILMVAALPWLARPADFDPRDPPADLLP	failed
MTMKKSEITVALAGNANVGKSVIFNQLTGSNQIVGNWPGKTVERAEGYLKFQGRDIHIIDLPGIYSFSTYSMEEIVSRDFIINEGPDVVINVLDASVLERNLFFTLQLMEMEVPMVICINQVDMARQKGITIDDEKLEKVLGVPVVSTVAVKGRGLQELLRKTVEVADKKTLPRIIEYGEEIETRIGKLMDALPEIPEGYSARWVAIKLLENDPQITAMMPEDVRKLASELAAEIESIHGEPAFSVITSERYAISSMIAAGAQRQEEIKTSLSERLDGFLTHPVYGYISSVLVVGGLLLWTFVVGEFLSDTLTGIFGFFQPVDPKFSGSIESIIWNGAFGGIVAGLTLVIPFVIPFYLMLSYIENSGLLTRVAFMMDAFMRKIGLHGKALIPLILGYGCSVPAIDSTRILETHRERLLAAFAISFAPCAARTILILGLVALFVNVWWAIGLYALDLLIIFIMGKVALKALPGETTGLIMEMHSLKMPSFRVIARQTWTRTRSLIYLVFPIYIIGSALIQLLYALGWLNPISAFMAPLTVGWLKLPVFAGILLILGAVRKEFILLGLVSLVGTNIGAALTAPQILVLTLVGMLYFPCLSTIAILAREFSWRSTSIITLANLGTALFLGGLFARILPLIF	failed
MTMPRLASSRWWYIMPIVFVTYSLAYLDRANYGFAAASGMADDLRITPGLSSLLGALFFLGYFFFQVPGAIYAEKRSVKKLIFVSLILWGGLATLTGMVANVYLLIGIRFLLGVVEAAVMPAMLVYLCHWFTRAERSRANTFLILGNPVTILWMSVVSGYLVEHFSWRWMFIIEGLPAVIWAFIWWRLVDDRPRQAAWLSGSEKRDLEDALAAEQQGIKPVKNYREAFRSPKVIVLSLQYFCWSIGVYGFVLWLPSILKHGANIDIIEAGWLSALPYLAAVIAMLGVSWASDRLQKRKRFVWPPLLIASIAFYGSYALGSEHFWLSYALLVLAGACMYAPYGPFFAIVPEVLPANVAGGAMALINSMGALGSFSGSWLVGYLNGITGGPGASYLFMSGALLLSVLLTVFLNPHADKREPDAARAHASRRAAPAHP	failed
MTMRVVTAPAEPPQGASHVAPSFTRMDTSVLGRWWWTVDRPMLGAVALLIAAGVFLILAAGPPAAGRIGAQTYHFVQRQFLFVPVAGVLVIAVSLLPVLWVRRIAVLLFALFMVLLLGTLFVSSDIKGASRWIAIGPFALQPSEFVKPTFAVVTAWMFASARTQDRFPGNLIAMLLMAVVGALLVAQPDFGMTMVVACVWGTQFFLAGLSLVWVVLLAAVGMIGAVIAYFALPHVQSRVDRFLDPASGDQYQIRQSMKAFMEGGLFGRGPGEGRVKEFLPDAHTDFIFAVAGEEFGLFLCLTIVALFAFLIIRSAIRLRREQNLFVLIAAGGLLTQLGLQALINMASSLSLIPTKGMTLPFISYGGSSLLSTAVAMGMVLALTRRRAHGERT	failed
MTMSTTREIAFLIARILLGVILIAHGWDKFAITGLEGVTGFFDSLGIPAAGIAAIAAAVVELLGGILIILGVFTRIVAAFVAIDMLFAALFAHVSSGIFVTNNGWELTGAIGAGALLLIAVGAGAWSIDGVLAKRKA	failed
MTNKAIKATNEELQQVYNDIPKAYDRANRFISFNQDVKWRADLVKTILKYCKRPKLILDVASGKGELSYTFKKIYKDNSNYEIILSDYAENMLKMALIKDDKVLCSFDALPFREKTFDIVMSSFALHASDNIEDVIREITRVSRKIVGFIAMGKPDSWVRRIYLSIYLKYIMPYIAVLGGAKARDFKYIYYIYERVPTNSQHKRIFEKYIDIKVYEERALNLFYFVVGFPKE	failed
MTNKITERITGHTELIGLIATPIRHSLSPTMHNEAFAKLGLDYVYLAFEVGDKELKDVVQGFRAMNLRGWNVSMPNKTNIHKYLDKLSPAAELVGAVNTVVNDDGVLTGHITDGTGYMRALKEAGHDIIGKKMTICGAGGAATAICIQAALDGVKEISIFNRKDDFYANAEKTVEKINSKTDCKAQLFDIEDHEQLRKEIAESVIFTNATGVGMKPFEGETLLPSADMLRPELIVSDVVYKPTKTRLLEIAEEQGCQTLNGLGMMLWQGAKAFEIWTHKEMPVDYIKEILF	not failed
